Source: article PMC10858199 (2024)

Biological target: Amyloid-beta aggregates (Homo sapiens, UniProt P05067)
Test: SPR

B1: CR4 I-domain (protein)
chain: RNFATMMNFVRAVISQFQRPSTQFSLMQFSNKFQTHFTFEEFRRSSNPLSLLASVHQLQGFTYTATAIQNVVHRLFHASYGARRDAAKILIVITDGKKEGDSLDYKDVIPMADAAGIIRYAIGVGLAFQNRNSWKELNDIASKPSQEHIFKVEDFDALKDIQNQLKEKIFAIEGT
B1 was tested, and the Kd was roughly 1 µM.
